Literature values, collected in publication PMC3082853.

Target: FepA (Escherichia coli) (UniProt P05825)
Chain of UniProt P05825 (P05825 23-746): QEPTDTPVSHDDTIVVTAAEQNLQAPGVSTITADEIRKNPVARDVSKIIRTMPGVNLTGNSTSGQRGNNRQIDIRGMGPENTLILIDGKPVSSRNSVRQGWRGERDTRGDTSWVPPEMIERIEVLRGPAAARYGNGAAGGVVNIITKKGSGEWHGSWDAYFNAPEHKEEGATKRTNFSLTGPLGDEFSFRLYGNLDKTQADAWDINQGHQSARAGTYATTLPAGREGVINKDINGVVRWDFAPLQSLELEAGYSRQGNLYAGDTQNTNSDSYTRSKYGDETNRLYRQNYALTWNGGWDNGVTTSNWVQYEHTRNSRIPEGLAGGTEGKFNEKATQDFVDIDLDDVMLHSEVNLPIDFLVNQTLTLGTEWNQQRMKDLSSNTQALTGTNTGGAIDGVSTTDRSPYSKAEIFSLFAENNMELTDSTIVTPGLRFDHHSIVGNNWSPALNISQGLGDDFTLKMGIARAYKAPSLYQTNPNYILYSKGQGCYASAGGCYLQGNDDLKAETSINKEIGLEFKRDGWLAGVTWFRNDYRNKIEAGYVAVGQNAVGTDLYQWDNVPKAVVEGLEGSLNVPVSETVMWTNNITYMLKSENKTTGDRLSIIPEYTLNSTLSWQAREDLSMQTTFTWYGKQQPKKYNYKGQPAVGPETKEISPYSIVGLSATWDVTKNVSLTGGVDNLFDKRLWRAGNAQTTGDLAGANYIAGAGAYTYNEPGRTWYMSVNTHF

With colicin B (from UniProt P05819) as the substance, how does the Kd read?
The Kd was 185 nM.
